Results on 19 molecules are retold here after patent US20250101071A1 (PAUL EHRLICH INSTITUT BUNDESINSTITUT F R IMPFSTOFFE UND …, published 2025).

Changes are numbered by the printed parent chain.

The chains are these.
T1: recombinant human CD32b protein, biotinylated (human, UniProt P31994 43-217)
T1 construct: also called CD32b-His; recombinant CD32b protein
T1 sequence: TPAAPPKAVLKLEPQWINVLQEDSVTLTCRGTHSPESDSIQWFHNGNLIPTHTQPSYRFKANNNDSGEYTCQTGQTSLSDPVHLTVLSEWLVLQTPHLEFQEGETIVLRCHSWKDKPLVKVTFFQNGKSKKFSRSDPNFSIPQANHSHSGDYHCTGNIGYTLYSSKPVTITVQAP

T2: human CD32b expressed on cells (human, UniProt P31994 43-310)
T2 construct: also called SupT1-CD32b; CHO-CD32b
T2 sequence: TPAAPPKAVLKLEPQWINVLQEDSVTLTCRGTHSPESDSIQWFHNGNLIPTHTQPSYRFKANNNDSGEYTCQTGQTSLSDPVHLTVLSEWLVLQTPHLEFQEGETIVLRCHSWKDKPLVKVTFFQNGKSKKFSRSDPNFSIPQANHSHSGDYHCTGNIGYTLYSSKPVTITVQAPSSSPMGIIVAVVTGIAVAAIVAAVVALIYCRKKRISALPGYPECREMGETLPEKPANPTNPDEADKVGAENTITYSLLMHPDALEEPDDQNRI

B1: DARPin 53.A8 (designed binder)
chain: DLGKKLLEATRAGQDDEVRILMANGANVNATDEEGLTPLHLAALDGHLEIVEVLLKYGADVNADDMHGPTPLHLAAYAGHLEIVEVLLKYGADVNAYDCGGHTPLHLAARLGHLEIVEVLLKYGADVNAQDKFGKTPFDLAIDNGNEDIAEVLQKAA
B2: DARPin 53.2.C8 (designed binder)
chain: DLGKKLLEAARAGQDDAVRILMANGADANAYDHMGETPLHLAAMEGHLEIVEVLLKHGADVNADDWDGQTPLHLAAHWGHLEIVEVLLKYGADVKEQDVVGYTPLHLAAWIGHLEIVEVLLKNGADVNAQDKFGKTPFDLAIDNGNEDIAEVLQKAA
B3: DARPin 53.D11 (designed binder)
chain: DLGKKLLEAARAGQDDEVRILMANGADVNATDITGATPLHLAAMWGHLEIVEVLLKYGADVNAQDYEGYTTLHLAAMWGHLEIVEVLLKYGADVNAHDVAGHTPLHLATHFGHLEIVEVLLKHGADVNAQDKFGKTPFDLAIDNGNEDIAEVLQKAA
B4: DARPin 53.A10 (designed binder)
chain: DLGKKLLEAARAGQDDEVRILMSNGADVNAWDKEGVTPLHLAAVHGHLEIVEVLLKHGADVNAQDDVGMTPLHLAAHWGHLEIVEVLLKYGADVNAQDYAGMTPLHLAAFQGHLEIVEVLLKHGADVNAQDKFGKTPFDLAIDNGNEDIAQVLQKAA
B5: DARPin 53.G1 (designed binder)
chain: B4 chain with A10T, Q151E
B6: DARPin 53.A11 (designed binder)
chain: DLGKKLLEATRAGQDDEVRILMANGADVNATDEEGLTPLHLAALIGHLEIVEVLLKYGADVNAADMDGTTPLHLAAQEGHLEIVEVLLKYGADVNADDFWGHTPLHLAAWFGHLEIVEVLLKHGADVNAQDKFGKTPFDLAIDNGNEDIAEVLQKAA
notes: also called 53.C9; 53.F7
B7: DARPin 53.2.E10 (designed binder)
chain: B6 chain with A30T
B8: DARPin 53.B8 (designed binder)
chain: B6 chain with A23T, A26T, L48P, G91C, H123Y
B9: DARPin 53.2.B6 (designed binder)
chain: B6 chain with L81Q, T136I
B10: DARPin 53.2.H5 (designed binder)
chain: B6 chain with G58D, A109P, K122N, I149L
B11: DARPin 53.D7 (designed binder)
chain: B6 chain with T10A, H123N
B12: DARPin 53.E11 (designed binder)
chain: B6 chain with T10A, A59T
B13: DARPin 53.2.H4 (designed binder)
chain: B6 chain with A30T, E118D, K122A, H123N, G124V, Q130N, D131S, K132A, F133Q, G134S
B14: DARPin 53.H9 (designed binder)
chain: B6 chain with A64V, E151Q
B15: DARPin 53.G7 (designed binder)
chain: B6 chain with A43V, E52D
B16: DARPin 53.B10 (designed binder)
chain: B6 chain with H123N
B17: DARPin 53.2.H9 (designed binder)
chain: B6 chain with A76V, H123Y, V152A
B18: DARPin 53.2.D6 (designed binder)
chain: B6 chain with E8D, T10A, R11S
B19: DARPin 53.C1 (designed binder)
chain: DLGKKLLEAARVGQDDEVRILMANGADVNATDNEGQTPLHLAAMWGHLEIVEVQLKHGADVNASDTFGSTPLHLAARFGHLEIVEVLLKYGADVNAADTEGFTPLHLAAIDGHLEIVEVLLKHGADVNAQDKFGKTPFDLAIDNGNEDIAEVLQKAA

In one test the target is T1, recombinant human CD32b protein, …. The experiment in a line: SPR, Biacore T200, biotinylated CD32b on neutravidin chip. For orientation: Surface plasmon resonance follows binding to a sensor surface in real time, without labels.
As to B1, the binding result was “no binding”.

The next test deals with T3, neutravidin (UniProt P02701 25-152).
T3 construct: also called neutravidin NA chip (Cytiva)
T3 sequence (P02701 25-152): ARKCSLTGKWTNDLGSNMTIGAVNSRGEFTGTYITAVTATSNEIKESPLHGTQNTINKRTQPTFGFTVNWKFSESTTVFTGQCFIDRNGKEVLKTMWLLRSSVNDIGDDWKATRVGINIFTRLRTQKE
Put plainly: SPR, Biacore T200, neutravidin NA chip.
Take B1: the binding result was “no binding”.

Another test concerns the target T2, human CD32b expressed on cells. The experiment in a line: flow cytometry, crude E. coli extract on SupT1-CD32b cells.
As to B2, the binding result is given as “no binding (tested: 5-25 µl of crude DARPin extracts)”.

In the case of B3, the binding result is recorded as “no binding (tested: 5-25 µl of crude DARPin extracts)”. Same read-out and setting: the entry for B4 is “no binding (tested: 5-25 µl of crude DARPin extracts)”. On to B5, for which the binding result is given as “no binding (tested: 5-25 µl of crude DARPin extracts)”. For B6, the binding result is “no binding (tested: 5-25 µl of crude DARPin extracts)”. On the same count and under the same terms, the entry for B7 is “no binding (tested: 5-25 µl of crude DARPin extracts)”; for B8 it is “no binding (tested: 5-25 µl of crude DARPin extracts)”; for B9 it is “no binding (tested: 5-25 µl of crude DARPin extracts)”.

In the case of B10, the binding result is given as “no binding (tested: 5-25 µl of crude DARPin extracts)”. Take B11: the binding result is “no binding (tested: 5-25 µl of crude DARPin extracts)”. With B12, the binding result is given as “no binding (tested: 5-25 µl of crude DARPin extracts)”. On to B13, for which the binding result is on record as “no binding (tested: 5-25 µl of crude DARPin extracts)”. In the case of B14, the binding result is listed as “no binding (tested: 5-25 µl of crude DARPin extracts)”. As to B15, the binding result is reported as “no binding (tested: 5-25 µl of crude DARPin extracts)”. On the same count and under the same terms, the result for B16 reads “no binding (tested: 5-25 µl of crude DARPin extracts)”; that for B17, “no binding (tested: 5-25 µl of crude DARPin extracts)”. On the same count and under the same terms, the result for B18 reads “no binding (tested: 5-25 µl of crude DARPin extracts)”. The same measure, in the same setting: the entry for B1 is “no binding (tested: 5-25 µl of crude DARPin extracts)”; for B19 it is “no binding (tested: 5-25 µl of crude DARPin extracts)”.
